Test results published in patent US20050129695A1 (published 2005).

What was measured:
human Aβ1-42 = molecular target: T1, human Aβ1-42 (human, UniProt P05067 672-713); test: BIAcore 3000, antibody amine-coupled to CM5, peptide injected; qualitative
T1 construct: domain: Aβ1-42; same polypeptide, aggregation state differs; also called Aβ42; 1-42 peptide
Method: (§1) BIAcore 3000, CM5 sensor surface, amine coupling kit, HEPES buffered saline (HBS, 10 mM HEPES 150 mM NaCl, pH7.4 with 3 mM EDTA and 0.005% Tween-20) and 10 mM sodium acetate pH 4.5 were purchased from Biacore, Inc. (Piscataway, N.J.). Anti-Aβmonoclonal antibodies (100 ug/mL) were dialyzed against HBS diluted 1:10 with water. Then, the dialyzed mAb solution was diluted 1:10 into 10 mM sodium acetate pH 4.5. The CM5 sensor surface was equilibrated in the BIAcore 3000 with HBS. Each antibody was immobilized onto a flow cell using the immobilization wizard provided in the operating software and the protocols supplied with the amine coupling kit. The wizard was set to immobilize 2500 RU of antibody. Typically 2000-3000 RU were actually immobilized.
(§2) For each mAb response, data as a function of time were collected (FIG. 46). From the sensorgram, report points are taken 10 seconds prior to the injection of the peptide, 10 seconds prior to the completion of the association phase, and 60 seconds into the dissociation phase. […] These calculations are made possible by assuming that 1 RU=1 pg of peptide (or protein)/mm².
(§3) Due to the potentially multiple aggregation states of the 1-38 and 1-42 peptides, a quantitative analysis of the binding constants is not possible. However, a qualitative analysis is possible. FIG. 47 ranks the mAbs as a function of binding ratio and fraction remaining on the surface after 60 seconds reflecting the stability of the complex. From this analysis C705 and C707 appear to be capable of binding to “monomeric” peptide, where as C701 and C706 requires the peptide to be aggregated to some extent before they can bind.

Aβ38 peptide (1-38) = molecular target: T2, Aβ38 peptide (1-38) (UniProt P05067 672-709); test: as above
T2 construct: domain: Aβ38 (1-38 peptide); Injected over immobilized antibodies in BIAcore; also called 1-38 peptide
Method: as §1, §2, §3

T1 sequence (P05067 672-713 limits assumed): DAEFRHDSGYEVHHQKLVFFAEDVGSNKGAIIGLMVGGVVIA
T2 sequence (P05067 672-709 limits assumed): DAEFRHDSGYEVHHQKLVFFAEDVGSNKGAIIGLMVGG

binding result (human Aβ1-42) | binding result (Aβ38 peptide (1-38)) | Binder
binds | binds | anti-Aβ monoclonal antibody C706 (antibody, V domains shown, Tested as protein G purified IgG, detected with goat anti-mouse IgG; also called C706 mAb) VH: QVQLQQSGPELMKPGASVKISCKATGYTFSTSWIEWIKQRPGHGLEWIGEVLPGSGKSNHNANFKGRATFTADTASNTAYMQLSSLTSEDSAVYYCAREGSNNNALAYWGQGTLVTVSA VL: QIVLTQSPAIMSASPGEKVTMTCSASSSVSYMHWYQQKSGTSPKRWIYDSSRLASGVPSRFSGGGSGTSYSPTISNMEAEDAATYFCQNWRSSPTFGAGTKLELKR
binds | binds | anti-Aβ monoclonal antibody C707 (antibody, V domains shown, Tested as protein G purified IgG, detected with goat anti-mouse IgG; also called C707 mAb) VH: EVQLQQSGPDLVKPGASVKTSCKTSGYSFTEYIMSWVRQSHGKSLEWIGSINPNTGGSRYNQKFKGKATLTVDKSSSTAYMEFRSLTSEDSAVYYCARGDFDYWGQGTTLTVSS VL: DIVMTQAAFSNPVTLGTSASISCRSSKNLLHSNGITYLYWYLQRPGQSPQLLISRVSNLASGVPNRFSGSESGTDFTLRISRVEAEDVGVYYCAQLLELPFTFGSGTKLEIKR

Continued, binder first:

Binder | binding result (human Aβ1-42) | binding result (Aβ38 peptide (1-38))
anti-Aβ monoclonal antibody C705 (antibody, V domains shown, Tested as protein G purified IgG, detected with goat anti-mouse IgG; also called C705 mAb) VH: not shown VL: DVMMTQTPLSLPVSLGDQASISCRSSQSLVHSNGNTYLEWYMQKPGQSPMLLIYKVSNRFSGVPDRFSGSGSGTDFTLKISSVEAEDLGVFYCFQGSRVPLTFGAGTKLELKR | binds | binds
anti-Aβ monoclonal antibody C701 (antibody, V domains shown, Tested as protein G purified IgG, detected with goat anti-mouse IgG; also called C701 mAb) VH: EGQLQQSGAELVRSGASLKLSCTASGFNIKDHYVHWVRQRPEQGLDWIGWIAPKNGYSESAPKFQGKASMTADTSSNTVYLQLSSLTSEDTAVYYCFAGFYDSSLYWGQGTTLTVSS VL: not shown | binds | binds
